Experimental findings from publication PMC11423790, “Structural Insights into the Diversity and DNA Cleavage Mechanism of Fanzor” are described below.

What all share (conditions): protein: recombinant; tags: 10xHis-MBP N-terminal; blunt DNA 54 bp; R-loop
In data set [1] the target is T1, SpuFz1 (Spizellomyces punctatus ATCC 48900, UniProt A0A0L0H5U9 1-622). The data set is described as follows: cryo-EM structure; State I, 8-bp heteroduplex; RNP purification buffer 20 mM HEPES pH 7.5, 150 mM NaCl, 2 mM MgCl2, 4.5 mM TCEP, 4 C; ternary complex assembly conditions not in the material.
T1 sequence (A0A0L0H5U9 entry or part of it): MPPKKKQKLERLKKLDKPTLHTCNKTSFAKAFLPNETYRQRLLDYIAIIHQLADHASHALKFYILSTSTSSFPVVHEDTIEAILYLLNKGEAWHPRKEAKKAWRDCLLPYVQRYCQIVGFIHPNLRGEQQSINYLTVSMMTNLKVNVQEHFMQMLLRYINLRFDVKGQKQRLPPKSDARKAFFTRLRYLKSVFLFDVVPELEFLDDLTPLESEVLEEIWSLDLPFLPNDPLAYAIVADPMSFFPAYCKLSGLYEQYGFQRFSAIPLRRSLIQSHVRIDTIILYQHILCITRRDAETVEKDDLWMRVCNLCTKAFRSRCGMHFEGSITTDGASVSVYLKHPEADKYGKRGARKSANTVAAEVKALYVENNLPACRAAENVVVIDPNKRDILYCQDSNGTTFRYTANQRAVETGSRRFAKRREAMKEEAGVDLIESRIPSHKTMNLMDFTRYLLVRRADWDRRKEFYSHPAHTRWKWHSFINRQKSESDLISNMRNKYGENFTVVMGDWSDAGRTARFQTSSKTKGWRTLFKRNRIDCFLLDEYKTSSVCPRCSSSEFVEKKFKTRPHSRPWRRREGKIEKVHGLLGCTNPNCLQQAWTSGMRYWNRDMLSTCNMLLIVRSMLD
The target of data set [2] is T1, SpuFz1. The data set is described as follows: cryo-EM structure; State IV, dsDNA unwound on RuvC; RNP purification buffer 20 mM HEPES pH 7.5, 150 mM NaCl, 2 mM MgCl2, 4.5 mM TCEP, 4 C; ternary complex assembly conditions not in the material.
In data set [3] the target is T1, SpuFz1. The data set is described as follows: cryo-EM structure; State V, 15-bp heteroduplex, lid down; RNP purification buffer 20 mM HEPES pH 7.5, 150 mM NaCl, 2 mM MgCl2, 4.5 mM TCEP, 4 C; ternary complex assembly conditions not in the material.
Data set [4] has as its target T1, SpuFz1. The data set is described as follows: cryo-EM structure; State VI, 15-bp heteroduplex, weak lid density; RNP purification buffer 20 mM HEPES pH 7.5, 150 mM NaCl, 2 mM MgCl2, 4.5 mM TCEP, 4 C; ternary complex assembly conditions not in the material.

B1: SpuFz1 omegaRNA + ds2 (mixed)
RNA: GUUUUCCGAGCCGGUUGUCGCGCGGUUCAAUCCCUGGUGCGGGUGCUAGUGCCAAUACCCACCGGCUCCGCACUAUCUAUAGGUUAUGA
DNA 1: ATTCGAGCTCGGTACCCGGGCATATCTATAGGTTATGAAATCAAATTACAAATA
DNA 2: TATTTGTAATTTGATTTCATAACCTATAGATATGCCCGGGTACCGAGCTCGAAT
modifications: phosphorothioates, TS partially modified, NTS unmodified
As to B1, the binding result in data set [1] is given as “binds”.

B2: SpuFz1 omegaRNA + ds3 (mixed)
RNA: GUUUUCCGAGCCGGUUGUCGCGCGGUUCAAUCCCUGGUGCGGGUGCUAGUGCCAAUACCCACCGGCUCCGCACUAUCUAUAGGUUAUGA
DNA 1: ATTCGAGCTCGGTACCCGGGCATATCTATAGGTTATGAAATCAAATTACAAATA
DNA 2: TATTTGTAATTTGATTTCATAACCTATAGATATGCCCGGGTACCGAGCTCGAAT
modifications: phosphorothioates, NTS partially modified, TS unmodified
B2: the binding result in data set [2] is “binds”.

B3: SpuFz1 omegaRNA + ds5 (mixed)
RNA: GUUUUCCGAGCCGGUUGUCGCGCGGUUCAAUCCCUGGUGCGGGUGCUAGUGCCAAUACCCACCGGCUCCGCACUAUCUAUAGGUUAUGA
DNA 1: ATTCGAGCTCGGTACCCGGGCATATCTATAGGTTATGAAATCAAATTACAAATA
DNA 2: TATTTGTAATTTGATTTCATAACCTATAGATATGCCCGGGTACCGAGCTCGAAT
modifications: phosphorothioates, TS fully modified, NTS unmodified
For B3, in data set [3], the binding result is recorded as “binds”.

B4: SpuFz1 omegaRNA + ds6 (mixed)
RNA: GUUUUCCGAGCCGGUUGUCGCGCGGUUCAAUCCCUGGUGCGGGUGCUAGUGCCAAUACCCACCGGCUCCGCACUAUCUAUAGGUUAUGA
DNA 1: ATTCGAGCTCGGTACCCGGGCATATCTATAGGTTATGAAATCAAATTACAAATA
DNA 2: TATTTGTAATTTGATTTCATAACCTATAGATATGCCCGGGTACCGAGCTCGAAT
modifications: phosphorothioates, NTS fully modified, TS unmodified
With B4, the binding result in data set [4] is reported as “binds”.
